B1: OR4K15 (parent)
chain: GUUAACGGUCAUAGGCCAUGGAAACUAGGAGCACCAUUUCGCUGCCAGUGAAGAAAUGAACAAAGAAAAUCUGGGCCAGGCAGGCAUCAAAAGAAAUAGUCUUGCGCUCAACCAGAAAGUCUGUAAUCAUUUUAAGGGUA

Variants of: B1
Assay: self-cleavage, relative activity (ratio to wild type); higher = more cleavage; in vitro, sequencing; the parent is a self-cleaving ribozyme

| Variant | self-cleavage |
| --- | --- |
| A60G C71U | 0.1 |
| A60G A116G | 0.5 |
| A60G A116U | 0.31 |
| A60U A62G | 1.72 |
| A60C U120C | 0.98 |
| A59U U102C | 1.23 |
| A60U A67G | 2.09 |
| A59U A67G | 1.25 |
| A60U A94U | 1.82 |
| A60G A98U | 2.21 |
| A60C U108A | 0.04 |
| A59G C71U | 0.22 |
| A60G A118C | 0.74 |
| A60G A118G | 1.07 |
| A60G A118U | 0.79 |
| A60U A117G | 1.84 |
| A59U | 1.14 |
| A59U A95G | 1.85 |
| A60G A111U | 0.11 |
| A60G A111G | 0.03 |
| A60G A86U | 1.44 |
| A60G A68U | 1.38 |
| A60G A68G | 1.31 |
| A60G A110U | 1.3 |

| Variant | self-cleavage |
| --- | --- |
| A60G A110G | 0.13 |
| A60G A92G | 0.87 |
| A59G U87A | 1.11 |
| A59G U87C | 1.19 |
| A59G U87G | 0.3 |
| A60C U72C | 0.16 |
| A60G A96G | 1.47 |
| A60G A96U | 1.96 |
| A59U A96U | 0.97 |
| A60G C112U | 0.02 |
| A60G G79C | 0.07 |
| A60G A125G | 0.69 |
| A59U A86G | 0.7 |
| A59U A86U | 1.92 |
| A59U U100G | 2.13 |
| A59U U100A | 0.74 |
| A59U U100C | 2.73 |
| A60G A66G | 1.15 |
| A60G C101A | 0.23 |
| A59U A92G | 0.79 |
| A59U U108C | 0.02 |
| A60G U130C | 1.07 |
| A60G U130G | 1.18 |
| A59G A129C | 0.55 |

| Variant | self-cleavage |
| --- | --- |
| A59G A129U | 0.86 |
| A59U U127C | 0.28 |
| A59U U127G | 1.12 |
| A59U A63G | 1.22 |
| A60C A63G | 2.15 |
| A59U A110G | 0.08 |
| A59G A134U | 1.94 |
| A59G A134G | 0.34 |
| A60U A96G | 1.78 |
| A60G U103C | 0.78 |
| A60G U103G | 0.05 |
| A59G C105U | 0.17 |
| A60C A66G | 0.72 |
| A59G U122A | 1.38 |
| A60G A140G | 1.21 |
| A59U U132A | 1.61 |
| A59U A114C | 0.03 |
| A60G U100C | 1.35 |
| A60G C81U | 0.21 |
| A59G C101U | 0.26 |
| A60G G84U | 0.43 |
| A60G G123A | 1.05 |
| A60U A69G | 1.51 |
| A60G U102A | 0.99 |

| Variant | self-cleavage |
| --- | --- |
| A60U A95G | 1.6 |
| A59U U131C | 1.25 |
| A59G C112G | 0.03 |
| A60G A129G | 0.49 |
| A59G G115U | 0.13 |
| A59G U100C | 2.06 |
| A59G U100A | 0.63 |
| A60C A82G | 0.28 |
| A59G C113U | 0.03 |
| A59U G137A | 2.05 |
| A59U G137U | 2.15 |
| A60G A114U | 0.06 |
| A60G A135G | 1.71 |
| A59U U124C | 0.69 |
| A59U U124A | 0.51 |
| A59G G79A | 0.28 |
| A60G A63C | 1.48 |
| A60G A63G | 1.35 |
| A60G A69G | 0.19 |
| A60U A64G | 0.65 |
| A60C G65A | 0.54 |
| A60G A90C | 0.79 |
| A60C A69G | 2 |
| A60G U124C | 0.63 |

| Variant | self-cleavage |
| --- | --- |
| A60G U70A | 1.3 |
| A59G U108A | 0.01 |
| A59G U108C | 0.02 |
| A59U A116U | 0.2 |
| A60U A89G | 1.73 |
| A60U A89U | 1.68 |
| A59G U103C | 0.67 |
| A59U U130C | 1.05 |
| A59G U120C | 0.97 |
| A60U A91G | 1.34 |
| A59G G106A | 0.02 |
| A60G C105U | 0.28 |
| A60C A117U | 0.56 |
| A59G C77U | 1.7 |
| A60G C128G | 0.87 |
| A59G U102C | 1.5 |
| A59G U102A | 0.81 |
| A59U A94G | 1.02 |
| A59U A78U | 0.31 |
| A59U A78G | 0.27 |
| A60G A67U | 2.01 |
| A60G A67C | 0.77 |
| A60G U131C | 0.15 |
| A59G U72A | 0.05 |

| Variant | self-cleavage |
| --- | --- |
| A60U A118U | 0.99 |
| A59U A91G | 0.79 |
| A60G U139C | 0.47 |
| A60G U139A | 1.12 |
| A59U A117C | 0.63 |
| A59U U103G | 0.04 |
| A60G A78G | 0.23 |
| A60G G136C | 0.72 |
| A59G A135G | 0.84 |
| A60C U100A | 0.68 |
| A60G A62U | 1.51 |
| A60G A62G | 1 |
| A60U A86G | 0.74 |
| A59U A68C | 1.35 |
| A59U A68G | 1.43 |
| A60G G104A | 0.02 |
| A60U A98G | 0.39 |
| A60G U132A | 1.17 |
| A60G G115A | 0.04 |
| A60C A111G | 0 |
| A59G U130C | 1.52 |
| A59G U130G | 1.62 |
| A60G U87C | 0.93 |
| A60C U122C | 1.62 |

| Variant | self-cleavage |
| --- | --- |
| A59G U132C | 0.46 |
| A59G U132G | 1.41 |
| A59U A89U | 2.6 |
| A60G A134G | 0.69 |
| A59U A134G | 1.02 |
| A60G A94U | 2.32 |
| A60G A126G | 0.27 |
| A59U G79A | 0.14 |
| A59U C109U | 0.43 |
| A60U A116G | 1.37 |
| A60G U97C | 1.05 |
| A59G U70C | 0.84 |
| A59G U70A | 0.56 |
| A60G U72C | 0.17 |
| A60G U72A | 0.17 |
| A60G A91U | 1.31 |
| A60G A91G | 0.99 |
| A59G C109G | 0.03 |
| A60G U127C | 0.93 |
| A60G U127A | 1.87 |
| A60G U127G | 1.52 |
| A59U A90C | 1.63 |
| A60G A64U | 1.46 |
